From paper PMC6486709

Substrate: C/C(=C\Cc1c(O)c(Cl)c(C)c(C=O)c1O)CC/C=C(\C)[C@@H](O)C[C@@H]1OC1(C)C
Test: cells, lysate or membranes
Settings: microsomal fraction of ascI-expressing yeast

B1: AscI (Acremonium egyptiacum) (protein)
chain: MPQLAGKLILAGLIPLGAWVLHGFASCNGLIQMFEDFGKQTVLSDGVTDYTGAFTGLEGLDRLLRTLLNFFWPVANGHDWALSLHAFMFAGQGVPLLVLNMLEGARPGNKSLVVSYVTVFGILYMVVGLAIMAPLYLFLHLLTSRTATAPSKAKVAVDPNTAKAVGFGVFVGYVLPTIFMSLPHPSLLSTDTKVLSVVFWQAVPLWASVCAYFASTALGQSATSRSSSNLPSALGAVYAASLIIATATHVATFAISANLSDTWSGIFTFLIPPNPFNTDMRISSFLEGATWFLQWDYTMMSLAYMVWAIGIRHGVEVPRSSHHFETLGKIALRSMAKLLVMGPIGAALSLVWERDQLLWQLDSESGEKGEKNRSRRMSRKWMFS
Protein B1 has a Km of 50.4 ± 11.1 µM.
